Assay results reported in patent publication US12195506B2, “Immunotherapy with A*01 restricted peptides and combination of peptides against cancers and related methods” (Immatics Biotechnologies GmbH, priority 2018, dated 2025).

Molecular target: HLA-A*01:01 (Homo sapiens, UniProt P04439, A114D/A174V/A182V/D101N/D185E/E176A/E190D/L180R/Q94H/R68K/S129P/T187R/V100A/V91M/W191G)
Test: MHC binding assay: UV-ligand exchange, ELISA of stabilized MHC complexes (peptide exchange yield)
Settings: binding to HLA-A*01:01, UV-ligand exchange
Source text: Candidate peptides for T cell based therapies according to the present invention were further tested for their MHC binding capacity (affinity). The individual peptide-MHC complexes were produced by UV-ligand exchange, where a UV-sensitive peptide is cleaved upon UV-irradiation and exchanged with the peptide of interest as analyzed. Only peptide candidates that can effectively bind and stabilize the peptide-receptive MHC molecules prevent dissociation of the MHC complexes. To determine the yield of the exchange reaction, an ELISA was performed based on the detection of the light chain (β2m) of stabilized MHC complexes. The assay was performed as generally described in Rodenko et al. (Rodenko et al., 2006)
96 well MAXISorp plates (NUNC) were coated over night with 2 ug/ml streptavidin in PBS at room temperature, washed 4× and blocked for 1 h at 37° C. in 2% BSA containing blocking buffer. Refolded HLA-A*02:01/MLA-001 monomers served as standards, covering the range of 15-500 ng/ml. Peptide-MHC monomers of the UV-exchange reaction were diluted 100-fold in blocking buffer. Samples were incubated for 1 h at 37° C., washed four times, incubated with 2 ug/ml HRP conjugated anti-β2m for 1 h at 37° C., washed again and detected with TMB solution that is stopped with […]. Absorption was measured at 450 nm.

Substance | Peptide exchange
1 (TLDSTRTLY; listed as Homo sapiens) [compound 1] | ++++ (>75% = ++++)
2 (VDPIGHLY; listed as Homo sapiens) [compound 2] | ++ (>20% = ++)
3 (FGTTPAAEYF; listed as Homo sapiens) [compound 3] | ++ (>20% = ++)
4 (RIEAIRAEY; listed as Homo sapiens) [compound 4] | ++ (>20% = ++)
5 (FMVIAGMPLFY; listed as Homo sapiens) [compound 5] | +++ (>50 = +++)
6 (ARDPITFSF; listed as Homo sapiens) [compound 6] | ++ (>20% = ++)
7 (ASDDVRIEVGLY; listed as Homo sapiens) [compound 7] | ++++ (>75% = ++++)
8 (TSRAANIPGY; listed as Homo sapiens) [compound 8] | + (>10% =+)
9 (QLDSTLDSY; listed as Homo sapiens) [compound 9] | +++ (>50 = +++)
13 (NTHTGTRPY; listed as Homo sapiens) [compound 13] | ++ (>20% = ++)
14 (QSEKEPGQQY; listed as Homo sapiens) [compound 14] | +++ (>50 = +++)
15 (YLDSSKPAVY; listed as Homo sapiens) [compound 15] | +++ (>50 = +++)
16 (NSDISIPEY; listed as Homo sapiens) [compound 16] | +++ (>50 = +++)
17 (ASWAVLCYY; listed as Homo sapiens) [compound 17] | +++ (>50 = +++)
20 (LSAQHRMLA; listed as Homo sapiens) [compound 20] | ++ (>20% = ++)
21 (LSSAVNPIIY; listed as Homo sapiens) [compound 21] | ++ (>20% = ++)
22 (VMDTLGLFY; listed as Homo sapiens) [compound 22] | ++++ (>75% = ++++)
23 (DTDPLKAAGL; listed as Homo sapiens) [compound 23] | + (>10% =+)

Substance | Peptide exchange
25 (AMMQEAQLAY; listed as Homo sapiens) [compound 25] | +++ (>50 = +++)
28 (PSEVPVDSHYY; listed as Homo sapiens) [compound 28] | +++ (>50 = +++)
29 (TLEDLDNLYNY; listed as Homo sapiens) [compound 29] | +++ (>50 = +++)
30 (VTTDKPRAY; listed as Homo sapiens) [compound 30] | ++ (>20% = ++)
31 (VSDHLQAGMLGQY; listed as Homo sapiens) [compound 31] | +++ (>50 = +++)
32 (GTDKQNSTLRY; listed as Homo sapiens) [compound 32] | +++ (>50 = +++)
34 (SSWSAGENDSY; listed as Homo sapiens) [compound 34] | +++ (>50 = +++)
35 (SWSAGENDSYS; listed as Homo sapiens) [compound 35] | + (>10% =+)
36 (MTSTEQSLY; listed as Homo sapiens) [compound 36] | +++ (>50 = +++)
38 (KSWSQSSSLMY; listed as Homo sapiens) [compound 38] | +++ (>50 = +++)
39 (WSQSSSLMY; listed as Homo sapiens) [compound 39] | ++++ (>75% = ++++)
40 (TSDQLGYSY; listed as Homo sapiens) [compound 40] | +++ (>50 = +++)
41 (HSDLLEDSKY; listed as Homo sapiens) [compound 41] | +++ (>50 = +++)
43 (ETEPERHLGSY; listed as Homo sapiens) [compound 43] | +++ (>50 = +++)
44 (IPSFNEMVY; listed as Homo sapiens) [compound 44] | ++ (>20% = ++)
45 (NLDPNKIY; listed as Homo sapiens) [compound 45] | + (>10% =+)
46 (RSDPGGGGLAYAAY; listed as Homo sapiens) [compound 46] | ++++ (>75% = ++++)
47 (WSDGVPLLY; listed as Homo sapiens) [compound 47] | ++++ (>75% = ++++)

Next, values leading:

Peptide exchange | Substance
+++ (>50 = +++) | 48 (FTTQDELLVY; listed as Homo sapiens) [compound 48]
++ (>20% = ++) | 49 (GSFSIQHTY; listed as Homo sapiens) [compound 49]
+++ (>50 = +++) | 50 (ITDEDEDMLSY; listed as Homo sapiens) [compound 50]
+++ (>50 = +++) | 51 (STEERRLNY; listed as Homo sapiens) [compound 51]
+++ (>50 = +++) | 52 (TTQDELLVY; listed as Homo sapiens) [compound 52]
+++ (>50 = +++) | 55 (ATEGDVLNY; listed as Homo sapiens) [compound 55]
+++ (>50 = +++) | 56 (VTEYAEEIYQY; listed as Homo sapiens) [compound 56]
+++ (>50 = +++) | 57 (ASDPASSTSCY; listed as Homo sapiens) [compound 57]
++++ (>75% = ++++) | 58 (YLENSASWY; listed as Homo sapiens) [compound 58]
+++ (>50 = +++) | 59 (FTDSQGNDIK; listed as Homo sapiens) [compound 59]
+++ (>50 = +++) | 62 (VSELVTTGHY; listed as Homo sapiens) [compound 62]
++++ (>75% = ++++) | 63 (TSEISQNALMY; listed as Homo sapiens) [compound 63]
++++ (>75% = ++++) | 65 (SSDFDPLVY; listed as Homo sapiens) [compound 65]
+++ (>50 = +++) | 67 (NVDQNQNSY; listed as Homo sapiens) [compound 67]
++ (>20% = ++) | 68 (QSLPEFGLTY; listed as Homo sapiens) [compound 68]
++ (>20% = ++) | 69 (QSLPEFGLTYY; listed as Homo sapiens) [compound 69]
+++ (>50 = +++) | 72 (VTDSTTKIAY; listed as Homo sapiens) [compound 72]
++++ (>75% = ++++) | 74 (EMEQQSQEY; listed as Homo sapiens) [compound 74]
+++ (>50 = +++) | 76 (QTDVERIKDTY; listed as Homo sapiens) [compound 76]
+++ (>50 = +++) | 78 (QLDSAVKNLY; listed as Homo sapiens) [compound 78]

Peptide exchange | Substance
++ (>20% = ++) | 80 (ELCPLPGTSAY; listed as Homo sapiens) [compound 80]
++++ (>75% = ++++) | 85 (SSDNYEHWLY; listed as Homo sapiens) [compound 85]
++ (>20% = ++) | 86 (VDPASNTY; listed as Homo sapiens) [compound 86]
++ (>20% = ++) | 87 (AFDDIATYF; listed as Homo sapiens) [compound 87]
++ (>20% = ++) | 88 (KEVDPAGHSYI; listed as Homo sapiens) [compound 88]
++ (>20% = ++) | 89 (EVYDGREHSAY; listed as Homo sapiens) [compound 89]
++ (>20% = ++) | 90 (YEDHFPLLF; listed as Homo sapiens) [compound 90]
++ (>20% = ++) | 92 (TTDDTTAMASAS; listed as Homo sapiens) [compound 92]
+++ (>50 = +++) | 93 (HLKILSPIY; listed as Homo sapiens) [compound 93]
++ (>20% = ++) | 94 (KPSAVKDSIY; listed as Homo sapiens) [compound 94]
++ (>20% = ++) | 95 (SSDPKAVMF; listed as Homo sapiens) [compound 95]
++ (>20% = ++) | 97 (FPAPPAHWFY; listed as Homo sapiens) [compound 97]
++ (>20% = ++) | 98 (NFSDLVFTY; listed as Homo sapiens) [compound 98]
++ (>20% = ++) | 99 (AADSNPSEL; listed as Homo sapiens) [compound 99]
+++ (>50 = +++) | 100 (TTSSAISWILY; listed as Homo sapiens) [compound 100]
++ (>20% = ++) | 101 (SITDVDFIY; listed as Homo sapiens) [compound 101]
++ (>20% = ++) | 102 (STIRGELFF; listed as Homo sapiens) [compound 102]
+++ (>50 = +++) | 103 (ITDTLIHLM; listed as Homo sapiens) [compound 103]
++ (>20% = ++) | 104 (ITDTLIHL; listed as Homo sapiens) [compound 104]
++ (>20% = ++) | 105 (VVFDKSDLAKY; listed as Homo sapiens) [compound 105]
